These are literature values, as cited in PMC4237619.

One may read the Kd as a measure of binding affinity in units of concentration.

Read-outs that look alike come from different tables or passages of the source.

The target in data set [1] is VEGF (Homo sapiens) (UniProt P15692).
Data set [2] shares this target. This is another data set of the same source.
Data set [3] shares this target. The source holds these as a separate data set.

Sequence of UniProt P15692 (P15692 whole entry): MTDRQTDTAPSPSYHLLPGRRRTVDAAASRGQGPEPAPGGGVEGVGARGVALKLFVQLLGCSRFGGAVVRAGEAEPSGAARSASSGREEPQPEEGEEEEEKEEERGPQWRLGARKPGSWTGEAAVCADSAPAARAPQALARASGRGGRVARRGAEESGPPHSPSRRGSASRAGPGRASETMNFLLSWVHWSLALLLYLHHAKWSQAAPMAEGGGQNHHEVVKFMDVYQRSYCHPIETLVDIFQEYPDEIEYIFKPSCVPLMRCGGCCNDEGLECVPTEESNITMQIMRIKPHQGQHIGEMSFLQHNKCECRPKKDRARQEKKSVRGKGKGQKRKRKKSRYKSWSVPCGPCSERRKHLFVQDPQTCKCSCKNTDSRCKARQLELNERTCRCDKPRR

Regarding ATWLPPR peptide, the Kd with VEGF (Homo sapiens) [1] was 0.33 nM.
NH2-GGGG-SY(SO3)DY(SO3)GGGG-OH peptide: the Kd with VEGF (Homo sapiens) [2] is 910 nM.
As to SY(SO3)DY(SO3)G peptide, the Kd with VEGF (Homo sapiens) [3] was 3100 nM.
